Laboratory results from PMC3097235.

B1: human tyrosinase: Δ2 (protein)
parent chain: MLLAVLYCLLWSFQTSAGHFPRACVSSKNLMEKECCPPWSGDRSPCGQLSGRGSCQNILLSNAPLGPQFPFTGVDDRESWPSVFYNRTCQCSGNFMGFNCGNCKFGFWGPNCTERRLLVRRNIFDLSAPEKDKFFAYLTLAKHTISSDYVIPIGTYGQMKNGSTPMFNDINIYDLFVWMHYYVSMDALLGGSEIWRDIDFAHEAPAFLPWHRLFLLRWEQEIQKLTGDENFTIPYWDWRDAEKCDICTDEYMGGQHPTNPNLLSPASFFSSWQIVCSRLEEYNSHQSLCNGTPEGPLRRNPGNHDKSRTPRLPSSADVEFCLSLTQYESGSMDKAANFSFRNTLEGFASPLTGIADASQSSMHNALHIYMNGTMSQVQGSANDPIFLLHHAFVDSIFEQWLRRHRPLQEVYPEANAPIGHNRESYMVPFIPLYRNGDFFISSKDLGYDYSYLQDSDPDSFQDYIKSYLEQASRIWSWLLGAAMVGAVLTALLAGLVSLLCRHKRKQLPEEKQPLLMEKEDYHSLYQSHL
B2: human tyrosinase: Δ7 (protein)
parent chain: B1 parent chain
B3: human tyrosinase: Δ6 (protein)
parent chain: B1 parent chain
B4: human tyrosinase: Δ1 (protein)
parent chain: B1 parent chain
B5: human tyrosinase: Δ4 (protein)
parent chain: B1 parent chain
B6: human tyrosinase: Δ3 (protein)
parent chain: B1 parent chain
B7: human tyrosinase: kifunensine (protein)
parent chain: B1 parent chain
B8: human tyrosinase: Δall (protein)
parent chain: B1 parent chain
B9: human tyrosinase: Δ(5,6,7) (protein)
parent chain: B1 parent chain

Assay: Endo H resistance (ER exit), immunoblot
Details: glycan lost; control: wild type
With B1 the localisation_or_trafficking was “abolishes”.
With B2 the localisation_or_trafficking was “abolishes”.
For B3, the localisation_or_trafficking was “abolishes”.
For B4, the localisation_or_trafficking was “decreases”.
For B5, the localisation_or_trafficking was “abolishes”.
For B6, the localisation_or_trafficking was “abolishes”.

Assay: pulse-chase IP of wild type, degradation
Details: glycan changed form; control: untreated
With B7 the degradation_or_half_life was “increases”.

Assay: pulse-chase IP with or without kifunensine
Details: glycan lost; control: wild type (accumulates with kifunensine)
For B8, the “other: kifunensine rescue from degradation” value (shortened to “other: kifunensine rescue”) was “abolishes”.
With B2 the “other: kifunensine rescue” value was “no change”.
In the case of B9, the “other: kifunensine rescue” value is reported as “decreases”.

Assay: DOPA oxidase recovery after culture at 31°C
Details: glycan lost; control: wild type
With B1 the stability_or_folding was “decreases”.
In the case of B2, the stability_or_folding is reported as “abolishes”.
For B3, the stability_or_folding was “decreases”.
In the case of B4, the stability_or_folding is reported as “decreases”.
For B5, the stability_or_folding was “decreases”.
For B6, the stability_or_folding was “decreases”.

Assay: DOPA oxidase specific activity, cells at 37°C
Details: glycan lost; control: wild type
For B1, the “enzymatic_activity, percent_of_wt” value was “decreases, The remaining mutants show intermediate activity, ranging from 25% to 30%”.
For B2, the “enzymatic_activity, percent_of_wt” value was “abolishes”.
For B3, the “enzymatic_activity, percent_of_wt” value was “abolishes”.
With B4 the “enzymatic_activity, percent_of_wt” value was “decreases, The remaining mutants show intermediate activity, ranging from 25% to 30%”.
With B5 the “enzymatic_activity, percent_of_wt” value was “decreases, The remaining mutants show intermediate activity, ranging from 25% to 30%”.
In the case of B6, the “enzymatic_activity, percent_of_wt” value is reported as “decreases, The remaining mutants show intermediate activity, ranging from 25% to 30%”.

Assay: immunofluorescence co-localisation with ER marker calnexin
Details: glycan lost; control: wild type
For B1, the localisation_or_trafficking was “changes”.
For B2, the localisation_or_trafficking was “changes”.
In the case of B3, the localisation_or_trafficking is reported as “changes”.
With B4 the localisation_or_trafficking was “changes”.
With B5 the localisation_or_trafficking was “changes”.
For B6, the localisation_or_trafficking was “changes”.

Assay: pulse-chase, DTT accessibility of disulfides, non-reducing SDS-PAGE
Details: glycan lost; control: wild type
In the case of B2, the stability_or_folding is reported as “decreases”.

Assay: immunofluorescence co-localisation with ERGIC-53, nocodazole-treated cells
Details: glycan lost; control: wild type
In the case of B1, the localisation_or_trafficking is reported as “no change”.
With B2 the localisation_or_trafficking was “no change”.
For B3, the localisation_or_trafficking was “no change”.
With B4 the localisation_or_trafficking was “no change”.
For B5, the localisation_or_trafficking was “no change”.
With B6 the localisation_or_trafficking was “no change”.
